Source: US7960513B2, “Antibody against a human ADAM protease” (Monash University, priority 2004, dated 2011)
“Also recorded” adds a separate entry of the source.

Legend:
ephrin-A1 = target: T1, ephrin-A1 (Homo sapiens, UniProt P20827); assay: In vitro binding (Protein-A pull-down) assay; details: ephrin-Fc captured on Protein A Sepharose
T1 sequence (P20827 19-182 limits assumed): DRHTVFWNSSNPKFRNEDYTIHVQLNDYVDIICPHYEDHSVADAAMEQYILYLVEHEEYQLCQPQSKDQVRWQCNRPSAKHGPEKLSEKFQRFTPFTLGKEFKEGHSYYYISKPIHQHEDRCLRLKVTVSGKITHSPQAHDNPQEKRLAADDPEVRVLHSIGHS

[1] = target: T2, EphA3/ephrin-A5 Fc complex (Homo sapiens, UniProt P29320+P52803); assay: HTRF / FRET assay of EphA3/ephrin-A5/ADAM10D+C complex formation; format: binding; details: unlabelled protein at increasing concentrations, 320 nM complex
T2 construct: Fc fusion proteins of the ephrin-A5 and EphA3 extracellular domains fused to the hinge and Fc region of human IgG1 were produced as described
T2 sequence (P29320 21-541 limits assumed): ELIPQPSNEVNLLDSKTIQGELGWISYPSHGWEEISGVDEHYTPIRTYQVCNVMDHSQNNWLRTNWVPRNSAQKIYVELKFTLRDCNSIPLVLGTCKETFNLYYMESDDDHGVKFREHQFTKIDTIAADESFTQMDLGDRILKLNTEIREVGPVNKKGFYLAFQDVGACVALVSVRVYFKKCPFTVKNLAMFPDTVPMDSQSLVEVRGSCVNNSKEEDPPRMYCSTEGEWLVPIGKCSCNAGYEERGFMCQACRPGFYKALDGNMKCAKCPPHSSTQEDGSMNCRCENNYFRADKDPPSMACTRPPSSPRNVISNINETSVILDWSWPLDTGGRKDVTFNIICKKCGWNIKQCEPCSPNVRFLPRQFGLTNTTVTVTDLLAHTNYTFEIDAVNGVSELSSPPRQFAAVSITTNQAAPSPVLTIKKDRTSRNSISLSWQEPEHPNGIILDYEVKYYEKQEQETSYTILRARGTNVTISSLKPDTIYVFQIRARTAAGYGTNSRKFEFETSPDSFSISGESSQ
T2 sequence (P52803 21-203 limits assumed): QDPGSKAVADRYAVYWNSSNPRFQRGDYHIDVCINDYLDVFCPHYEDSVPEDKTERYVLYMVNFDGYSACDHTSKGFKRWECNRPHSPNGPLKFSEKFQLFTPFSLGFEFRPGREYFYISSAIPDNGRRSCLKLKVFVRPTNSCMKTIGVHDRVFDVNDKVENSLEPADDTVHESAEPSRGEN
Method: FIG. 6. Fluorescence Energy Transfer (RET) analysis monitoring the formation of EphA3/ephrin-A5/ADAM10D+C complexes. • A) The proposed screening approach for inhibitors of the complex formation is based on a Homogeneous Time Resolved Fluorescence (HTRF™) Assay using a Eu^3+ chelate labeled donor and a XL665 labeled acceptor protein. Interactions between ADAM10 and its substrate, the EphA3/ephrinA5 complex are measured using (normalized) emission at 665 nm: the interaction brings the labels into proximity and triggers fluorescence resonance energy transfer (FRET), which initiates a chemical reaction cascade to produce an amplified fluorescent signal. […]
In this regard, screening or identification of inhibitors of complex formation is based on high-throughput homogeneous time resolved fluorescence (HTRF™) technology utilising donor and acceptor fluorescence labels that are conjugated to Fc-tagged proteins. An interaction between proteins brings the labels into proximity and triggers fluorescence resonance energy transfer (FRET), which initiates a chemical reaction cascade to produce an amplified fluorescent signal. […]
The proposed drug screening approach is based on homogeneous time resolved fluorescence HTRF™ technology utilising donor and acceptor fluorescence labels that are conjugated to Fc-tagged proteins. […]

EphA3/ephrin-A5 complex = target: T3, EphA3/ephrin-A5 complex (Homo sapiens, UniProt P29320+P52803); assay: In vitro binding (Protein-A pull-down) assay
T3 construct: incubated with Fc-tagged ectodomains of Eph-A3, EphB2, EphB4 and ephrin-A2, ephrin-A5, ephrin-B2 (R&D systems)
T3 sequence (P29320 21-541 limits assumed): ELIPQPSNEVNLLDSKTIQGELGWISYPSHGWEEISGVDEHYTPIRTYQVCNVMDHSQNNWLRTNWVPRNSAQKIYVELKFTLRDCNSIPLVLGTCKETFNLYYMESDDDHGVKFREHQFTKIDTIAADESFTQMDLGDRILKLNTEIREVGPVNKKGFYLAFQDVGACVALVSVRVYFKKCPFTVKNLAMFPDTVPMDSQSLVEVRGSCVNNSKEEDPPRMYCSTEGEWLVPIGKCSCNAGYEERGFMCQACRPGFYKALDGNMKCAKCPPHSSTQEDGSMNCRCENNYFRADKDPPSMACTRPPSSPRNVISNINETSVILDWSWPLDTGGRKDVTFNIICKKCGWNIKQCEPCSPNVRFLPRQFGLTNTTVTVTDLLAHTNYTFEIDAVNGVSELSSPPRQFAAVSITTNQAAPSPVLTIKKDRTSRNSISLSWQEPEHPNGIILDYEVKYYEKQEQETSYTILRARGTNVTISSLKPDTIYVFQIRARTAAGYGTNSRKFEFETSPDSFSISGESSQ
T3 sequence (P52803 21-203 limits assumed): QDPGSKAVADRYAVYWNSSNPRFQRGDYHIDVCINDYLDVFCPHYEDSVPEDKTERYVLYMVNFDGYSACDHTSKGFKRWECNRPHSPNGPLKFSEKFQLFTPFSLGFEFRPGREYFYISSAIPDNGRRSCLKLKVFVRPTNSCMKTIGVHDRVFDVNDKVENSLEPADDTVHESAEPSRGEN
Method: (§1) Pull-down experiments were done as follows: ADAM10D+C, ADAM17D+C w.t. or the alanine mutants (˜15 μg) were incubated with Fc-tagged ectodomains of Eph-A3, EphB2, EphB4 and ephrin-A2, ephrin-A5, ephrin-B2 (R&D systems) at 4° C. for 30 min in 500 μL of binding buffer containing 10 mM HEPES (pH 7.4), 150 mM NaCl and 0.05% of Triton X-100. To test binding to the preformed EphA3/ephrin-A5 complex, 5 μg of the untagged ephrin-A5 was incubated with Fc tagged EphA3 for 30 min at 4° C. followed by the addition of ADAM10. The proteins were incubated for an additional 30 min., when Protein-A-Sepharose (Amersham) beads were added to the reaction mixture and shaken at 4° C. for 2h. The beads were then harvested by centrifugation, washed once with 500 μl of binding buffer and the bound proteins were separated on a 10-20% gradient polyacrylamide gel. The binding of the individual ADAM domains was carried out likewise using 15 μg of the disintegrin and 8 μg of the cysteine-rich domain.

ectodomain of EphA3 = target: T4, ectodomain of EphA3 (Homo sapiens, UniProt P29320); assay: In vitro binding (Protein-A pull-down) assay; details: EphA3-Fc alone, without ephrin
T4 construct: incubated with Fc-tagged ectodomains of Eph-A3, EphB2, EphB4 and ephrin-A2, ephrin-A5, ephrin-B2 (R&D systems); purchased R&D systems
T4 sequence (P29320 21-541 limits assumed): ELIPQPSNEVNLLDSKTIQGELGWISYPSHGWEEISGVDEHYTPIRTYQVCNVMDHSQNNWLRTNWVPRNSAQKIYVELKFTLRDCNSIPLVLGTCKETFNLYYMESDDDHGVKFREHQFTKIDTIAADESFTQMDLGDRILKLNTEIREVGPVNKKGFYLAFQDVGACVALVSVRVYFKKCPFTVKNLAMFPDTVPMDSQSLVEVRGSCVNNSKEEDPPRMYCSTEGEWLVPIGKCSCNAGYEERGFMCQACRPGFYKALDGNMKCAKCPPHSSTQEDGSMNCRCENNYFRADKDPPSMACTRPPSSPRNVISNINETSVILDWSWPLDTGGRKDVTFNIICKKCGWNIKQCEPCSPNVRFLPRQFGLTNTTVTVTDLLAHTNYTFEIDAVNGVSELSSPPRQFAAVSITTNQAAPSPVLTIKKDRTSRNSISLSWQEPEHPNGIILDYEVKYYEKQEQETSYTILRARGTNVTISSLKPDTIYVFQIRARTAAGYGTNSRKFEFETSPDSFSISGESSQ
Method: as §1

EphB4/ephrin-B2 complex = target: T5, EphB4/ephrin-B2 complex (Homo sapiens, UniProt P52799+P54760); assay: In vitro binding (Protein-A pull-down) assay; details: Protein-A capture
T5 construct: incubated with Fc-tagged ectodomains of Eph-A3, EphB2, EphB4 and ephrin-A2, ephrin-A5, ephrin-B2 (R&D systems); purchased R&D systems
T5 sequence (P52799 28-229 limits assumed): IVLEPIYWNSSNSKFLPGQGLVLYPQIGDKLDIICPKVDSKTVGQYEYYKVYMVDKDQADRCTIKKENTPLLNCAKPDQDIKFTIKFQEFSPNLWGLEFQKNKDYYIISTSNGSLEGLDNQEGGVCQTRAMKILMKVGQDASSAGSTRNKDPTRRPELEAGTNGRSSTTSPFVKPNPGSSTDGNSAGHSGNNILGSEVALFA
T5 sequence (P54760 16-539 limits assumed): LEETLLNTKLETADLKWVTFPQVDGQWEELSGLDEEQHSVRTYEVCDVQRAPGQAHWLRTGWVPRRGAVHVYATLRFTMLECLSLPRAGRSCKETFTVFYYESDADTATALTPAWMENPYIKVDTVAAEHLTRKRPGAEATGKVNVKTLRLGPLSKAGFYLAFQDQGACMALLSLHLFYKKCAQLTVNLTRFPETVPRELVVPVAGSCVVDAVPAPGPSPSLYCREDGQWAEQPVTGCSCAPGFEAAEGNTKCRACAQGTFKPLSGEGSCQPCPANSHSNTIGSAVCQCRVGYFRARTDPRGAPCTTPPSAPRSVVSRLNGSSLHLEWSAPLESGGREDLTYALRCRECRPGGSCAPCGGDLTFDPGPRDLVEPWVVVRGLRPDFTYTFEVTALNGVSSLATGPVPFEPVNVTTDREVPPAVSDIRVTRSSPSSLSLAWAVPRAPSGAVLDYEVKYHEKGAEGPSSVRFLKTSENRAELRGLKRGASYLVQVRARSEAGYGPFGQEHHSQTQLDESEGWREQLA
Method: as §1

ephrin-A2 = target: T6, ephrin-A2 (Homo sapiens, UniProt O43921); assay: In vitro binding (Protein-A pull-down) assay; details: ephrin-Fc captured on Protein A Sepharose
T6 construct: incubated with Fc-tagged ectodomains of Eph-A3, EphB2, EphB4 and ephrin-A2, ephrin-A5, ephrin-B2 (R&D systems); purchased R&D systems
T6 sequence (O43921 25-188 limits assumed): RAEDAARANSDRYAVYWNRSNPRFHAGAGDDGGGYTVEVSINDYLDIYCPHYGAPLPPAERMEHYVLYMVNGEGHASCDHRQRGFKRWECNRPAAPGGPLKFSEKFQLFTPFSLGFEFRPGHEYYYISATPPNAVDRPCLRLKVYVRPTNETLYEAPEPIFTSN
Method: as §1

- binding to ephrin-A1 (ephrin-A1): bound
- inhibition of the labelled ADAM10D+C - EphA3/ephrin-A5 interaction (A665/A620) [1]: competitive inhibitor
- amount of EphA3-bound (complexed) ephrin-A5 (EphA3/ephrin-A5 complex; single-chain ephrin-A5 lacking Fc, captured via EphA3-Fc): notably increased
- binding to EphA3 ectodomain (ectodomain of EphA3): no interaction was seen
- binding to ephrin-A2 (ephrin-A2): bound
B1: ADAM10D+C: recombinant bovine Adam10 disintegrin and cysteine-rich domains (residues 455-646), Fc tag removed (protein)
chain: SGQPICGNGMVEQGEECDCGYSDQCKDECCYDANQPEGKKCKLKPGKQCSPSQGPCCTAHCAFKSKTEKCRDDSDCAKEGICNGITALCPASDPKPNFTDCNRHTQVCINGQCAGSICEKHGLEECTCASSDGKDDKELCHVCCMKKMEPSTCASTGSVQWNKYFLGRTITLQPGSPCNDFRGYCDVFMRCR
- binding to EphA3/ephrin-A5 complex (EphA3/ephrin-A5 complex; EphA3-Fc plus untagged ephrin-A5): readily bound and formed a stable complex; also recorded: binds
- binding to EphB4/ephrin-B2 complex (EphB4/ephrin-B2 complex): little or no association; also recorded: does not bind
